Results published in patent US20060286093A1 (ZymoGenetics, published 2006).

Assays:
ztnf4 (human) = ztnf4 (human) (UniProt Q9Y275)
soluble I125-ztnf4 = target: T1, soluble I125-ztnf4 (human, UniProt Q9Y275 134-285, limits assumed, 125I label); assay: Scatchard analysis of soluble I125-ztnf4 binding to stable BHK transfectants expressing BCMA
T1 construct: also called ztnf4 sol

IC50 (read off the curve), inhibition of ztnf4-driven human B cell proliferation (ztnf4 (human)) [µg/mL] | Kd (soluble I125-ztnf4) [nM] | Molecule
0.1 | – | BCMA-Ig (from UniProt Q9Y275) (Fc fusion)
– | 1.25 | BCMA expressed on cells (receptor, also called BCMA-BHK) MLQMAGQCSQNEYFDSLLHACIPCQLRCSSNTPPLTCQRYCNASVTNSVKGTNAILWTCLGLSLIISLAVFVLMFLLRKISSEPLKDEFKNTGSGLLGMANIDLEKSRTGDEIILPRGLEYTVEECTCEDCIKSKPKVDSDHCFPLPAMEEGATILVTTKTNDYCKSLPAALSATEIEKSISAR
0.1 | – | TACI-Ig soluble receptor (TACI-Fc4) (Fc fusion, part only; not given: Fc4 carrier, part only) chain, part: MSGLGRSRRGGRSRVDQEERFPQGLWTGVAMRSCPEEQYWDPLLGTCMSCKTICNHQSQRTCAAFCRSLSCRKEQGKFYDHLLRDCISCASICGQHPKQCAYFCENKLRSPVNLPPELRRQRSGEVENNSDNSGRYQGLEHRGSEASPALPGLKLSADQVALVYS
